B1: Protein SGT1 (Saccharomyces cerevisiae), Q08446 (parent)
chain: MPVEKDLKTAYKALYDEKEPLKALHLYDEILKGSPTNLTALIFKAACLEKLYFGFSDWHSDATMENAKELLDKALMTAEGRGDRSKIGLVNFRYFVHFFNIKDYELAQSYFKKAKNLGYVDDTLPLWEDRLETKLNKKNKKQKDSTNKHTIKPVESIENRGDNNSSHSPISPLKIETAPQESPKFKIDWYQSSTSVTISLFTVNLPESKEQVNIYISPNDRRTLSISYQVPKSGSEFQYNAKLSHEVDPKAVSLKIFPKKLEITLSKIDSTQWKKLEEDILTESSRLSDEGKNSDSATRLLSAETASKERLSYPSSSKKKIDWSKLDIDEEADEEAGSADSFFQKLYAGADPDTKRAMMKSFIESNGTALSTDWEDVSKGTVKTSPPEGMEPKHW

Variants of: B1
Conditions: with skp1_yeast SKP1, P52286
Sequence of skp1_yeast SKP1, P52286 (P52286 whole entry): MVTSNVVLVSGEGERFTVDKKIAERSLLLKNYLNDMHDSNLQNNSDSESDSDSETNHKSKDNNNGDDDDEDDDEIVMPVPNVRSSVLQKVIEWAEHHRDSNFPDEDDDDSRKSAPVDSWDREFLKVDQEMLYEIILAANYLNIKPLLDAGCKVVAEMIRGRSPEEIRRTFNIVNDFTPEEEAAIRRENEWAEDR

Variant	effect of a mutation on the interaction
T146S	decreasing interaction
